Measurements taken from patent US20170137467A1 (CHROMOTEK, published 2017).

T1: BC2T D2A (human)
T1 construct: position 2 library, row A
T1 peptide: Ac-PARKAAVSHWQQ-NH2

T2: BC2T A6P (human)
T2 construct: position 6 library (BC2TA6X), row P
T2 peptide: Ac-PDRKAPVSHWQQ-NH2

T3: BC2T V7Y (human)
T3 construct: position 7 library, row Y
T3 peptide: Ac-PDRKAAYSHWQQ-NH2

T4: BC2T P1M (human)
T4 construct: position 1 library, row M
T4 peptide: Ac-MDRKAAVSHWQQ-NH2

T5: BC2T D2Y (human)
T5 construct: position 2 library, row Y
T5 peptide: Ac-PYRKAAVSHWQQ-NH2

T6: BC2T R3T (human)
T6 construct: position 3 library (BC2TR3X), row T
T6 peptide: Ac-PDTKAAVSHWQQ-NH2

T7: BC2T K4M (human)
T7 construct: position 4 library, row M
T7 peptide: Ac-PDRMAAVSHWQQ-NH2

T8: BC2T V7N (human)
T8 construct: position 7 library, row N
T8 peptide: Ac-PDRKAANSHWQQ-NH2

T9: BC2T P1V (human)
T9 construct: position 1 library, row V
T9 peptide: Ac-VDRKAAVSHWQQ-NH2

T10: BC2T V7M (human)
T10 construct: position 7 library, row M
T10 peptide: Ac-PDRKAAMSHWQQ-NH2

T11: BC2T A5T (human)
T11 construct: position 5 library, row T
T11 peptide: Ac-PDRKTAVSHWQQ-NH2

T12: BC2T K4G (human)
T12 construct: position 4 library, row G
T12 peptide: Ac-PDRGAAVSHWQQ-NH2

T13: BC2T D2V (human)
T13 construct: position 2 library, row V
T13 peptide: Ac-PVRKAAVSHWQQ-NH2

T14: BC2T P1A (human)
T14 construct: position 1 library, row A
T14 peptide: Ac-ADRKAAVSHWQQ-NH2

T15: BC2T A6V (human)
T15 construct: position 6 library (BC2TA6X), row V
T15 peptide: Ac-PDRKAVVSHWQQ-NH2

T16: BC2T P1R (human)
T16 construct: position 1 library, row R
T16 peptide: Ac-RDRKAAVSHWQQ-NH2

T17: BC2T R3M (human)
T17 construct: position 3 library (BC2TR3X), row M
T17 peptide: Ac-PDMKAAVSHWQQ-NH2


Experiments:
Test in all cases: library pulldown, LC-MS of supernatant; ratio vs GFP-Nb control (0=captured, 1=not captured)
[1] = biological target: T1, BC2T D2A
Excerpt: (§1) In total, 12 different BC2T libraries displaying all 20 proteinogenic amino acids in one single position of the peptide were used in immunoprecipitation experiments. […] The direct comparison with the GFP-Nb made it possible to determine the quantitative degree of peptide capture without the need of labeled standards. […] The more peptide was captured the more the value approximates 0. It was not possible to discriminate between isoleucine (I) and leucine (L) peptide versions since these peptides are isobaric.
(§2) To investigate the binding specificity of the BC2T and derived mutants peptide libraries for each amino acid position of the sequence […] (SEQ ID NO:4) were synthesized with acetyl and amide groups located at the N-termini or C-termini respectively (Intavis). […] Incubations were performed in 300 μl PBS/0.01% CHAPS for 1 h on a HulaMixer (Life Technologies). Subsequent to a centrifugation step 10 μl supernatant were analyzed in a LC-MS procedure. Peptides were separated using an UltiMate3000 RSLCnano System (Thermo Scientific), composed of a C18 PepMap100μ-Precolumn (300 μm×5 mm; particle size: 5 μm; pore size: 100 Å—Thermo Scientific) and a C18 analytical column (Acclaim Rapid Separation LC (RSLC) Column: 150 mm×5 mm; particle size: 2.2 μm; pore size: 100 Å—Thermo Scientific). A step gradient was applied starting at 8% and ending after 20 min at 30% eluent B (80% acetonitrile, 20% H₂O, 0.1% formic acid).

[2] = biological target: T2, BC2T A6P
Excerpt: as §1, §2

[3] = biological target: T18, BC2T A5(I/L2)
T18 construct: position 5 library, row I/L2
Excerpt: as §1, §2

[4] = biological target: T19, BC2T D2(I/L2)
T19 construct: position 2 library, row I/L2
Excerpt: as §1, §2

[5] = biological target: T20, BC2T V7(I/L2)
T20 construct: position 7 library, row I/L2
Excerpt: as §1, §2

[6] = biological target: T3, BC2T V7Y
Excerpt: as §1, §2

[7] = biological target: T4, BC2T P1M
Excerpt: as §1, §2

[8] = biological target: T5, BC2T D2Y
Excerpt: as §1, §2

[9] = biological target: T6, BC2T R3T
Excerpt: as §1, §2

[10] = biological target: T7, BC2T K4M
Excerpt: as §1, §2

[11] = biological target: T21, BC2T R3(I/L1)
T21 construct: position 3 library (BC2TR3X), row I/L1
Excerpt: as §1, §2

[12] = biological target: T8, BC2T V7N
Excerpt: as §1, §2

[13] = biological target: T9, BC2T P1V
Excerpt: as §1, §2

[14] = biological target: T10, BC2T V7M
Excerpt: as §1, §2

[15] = biological target: T11, BC2T A5T
Excerpt: as §1, §2

[16] = biological target: T12, BC2T K4G
Excerpt: as §1, §2

[17] = biological target: T13, BC2T D2V
Excerpt: as §1, §2

[18] = biological target: T14, BC2T P1A
Excerpt: as §1, §2

[19] = biological target: T15, BC2T A6V
Excerpt: as §1, §2

[20] = biological target: T22, BC2T P1(I/L2)
T22 construct: position 1 library, row I/L2
Excerpt: as §1, §2

[21] = biological target: T16, BC2T P1R
Excerpt: as §1, §2

[22] = biological target: T17, BC2T R3M
Excerpt: as §1, §2

[23] = biological target: T23, BC2T A5(I/L1)
T23 construct: position 5 library, row I/L1
Excerpt: as §1, §2

ratio [1]	ratio [2]	ratio [3]	ratio [4]	ratio [5]	ratio [6]	ratio [7]	ratio [8]	ratio [9]	ratio [10]	ratio [11]	ratio [13]	ratio [14]	ratio [16]	ratio [17]	ratio [18]	ratio [19]	ratio [20]	ratio [22]	ratio [23]	Binder	further results
0.2	1.1	0.1	0.2	0.2	0.1	0.2	0.1	0.3	0.1	0.5	0.2	0.3	0.6	0.1	0.1	0.3	0.3	0.7	0.1	BC2 nanobody (BC2-Nb) (VHH, immobilised on agarose/sepharose beads in this assay; also called BC2 nanotrap (immobilised form); not shown: C-terminal 6xHis-tag added by pHEN6 vector) VHH: QVQLVESGGGLVQPGGSLTLSCTASGFTLDHYDIGWFRQAPGKEREGVSCINNSDDDTYYADSVKGRFTIFMDNAKDTVYLQMNSLKPEDTAIYYCAEARGCKRGRYEYDFWGQGTQVTVSS	ratio [12]: 0.2; ratio [15]: 0.1; ratio [21]: 0.2
0.4	1	0.2	0.3	0.4	0.3	0.5	0.2	0.8	0.5	0.9	0.4	0.5	0.9	0.2	0.3	0.6	0.6	0.9	0.2	BC2-NbR106S (VHH, immobilised on beads in this assay; not shown: C-terminal 6xHis-tag added by pHEN6 vector) VHH: QVQLVESGGGLVQPGGSLTLSCTASGFTLDHYDIGWFRQAPGKEREGVSCINNSDDDTYYADSVKGRFTIFMDNAKDTVYLQMNSLKPEDTAIYYCAEARGCKRGSYEYDFWGQGTQVTVSS	ratio [12]: 0.4; ratio [15]: 0.3; ratio [21]: 0.4
0.2	–	0.1	0.2	0.2	–	0.4	–	–	0.3	0.9	0.3	0.3	0.9	0.1	0.2	0.3	0.5	0.9	0.1	BC2-NbR106E (VHH, immobilised on beads in this assay; not shown: C-terminal 6xHis-tag added by pHEN6 vector) VHH: QVQLVESGGGLVQPGGSLTLSCTASGFTLDHYDIGWFRQAPGKEREGVSCINNSDDDTYYADSVKGRFTIFMDNAKDTVYLQMNSLKPEDTAIYYCAEARGCKRGEYEYDFWGQGTQVTVSS	–
